The chains are these.
T1: human APJ receptor (human, UniProt P35414 1-380)
T1 sequence (looked up): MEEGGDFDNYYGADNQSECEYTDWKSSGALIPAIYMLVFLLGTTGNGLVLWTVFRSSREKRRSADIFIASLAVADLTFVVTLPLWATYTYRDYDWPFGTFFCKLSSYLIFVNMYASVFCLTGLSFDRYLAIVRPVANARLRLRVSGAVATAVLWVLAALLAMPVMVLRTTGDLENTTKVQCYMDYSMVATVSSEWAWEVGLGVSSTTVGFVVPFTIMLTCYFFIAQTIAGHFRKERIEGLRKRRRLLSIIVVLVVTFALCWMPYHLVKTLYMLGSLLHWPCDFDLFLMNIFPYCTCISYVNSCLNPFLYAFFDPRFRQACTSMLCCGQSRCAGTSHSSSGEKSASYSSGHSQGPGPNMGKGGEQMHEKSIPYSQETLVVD

T2: rat APJ receptor (rat, UniProt Q9JHG3 1-377)
T2 sequence (looked up): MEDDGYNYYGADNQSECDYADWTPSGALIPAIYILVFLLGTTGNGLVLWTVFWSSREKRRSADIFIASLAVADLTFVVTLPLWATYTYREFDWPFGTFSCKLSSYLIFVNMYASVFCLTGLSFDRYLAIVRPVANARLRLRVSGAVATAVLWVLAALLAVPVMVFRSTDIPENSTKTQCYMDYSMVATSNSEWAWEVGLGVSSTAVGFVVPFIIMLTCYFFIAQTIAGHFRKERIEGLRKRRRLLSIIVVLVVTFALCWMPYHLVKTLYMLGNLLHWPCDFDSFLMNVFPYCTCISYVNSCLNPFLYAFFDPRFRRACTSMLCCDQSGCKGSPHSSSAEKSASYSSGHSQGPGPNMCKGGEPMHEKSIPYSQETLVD

B1: SEQ ID NO: 333 (peptide)
peptide: Tridecanoyl-[γGlu][AEEA][AEEA][hArg][Nle]Q[hArg]P[dR][NMeL]AAKG[Oic][Phe(4-I)]P[dBip]-OH
SMILES: CCCCCCCCCCCCC(=O)N[C@@H](CCC(=O)NCCOCCOCC(=O)NCCOCCOCC(=O)N[C@@H](CCCCNC(=N)N)C(=O)N[C@@H](CCCC)C(=O)N[C@@H](CCC(N)=O)C(=O)N[C@@H](CCCCNC(=N)N)C(=O)N1CCC[C@H]1C(=O)N[C@H](CCCNC(=N)N)C(=O)N(C)[C@@H](CC(C)C)C(=O)N[C@@H](C)C(=O)N[C@@H](C)C(=O)N[C@@H](CCCCN)C(=O)NCC(=O)N1[C@H](C(=O)N[C@@H](Cc2ccc(I)cc2)C(=O)N2CCC[C@H]2C(=O)N[C@H](Cc2ccc(-c3ccccc3)cc2)C(=O)O)C[C@@H]2CCCC[C@@H]21)C(=O)O
B2: SEQ ID NO: 490 (peptide)
peptide: Tridecanoyl-[γGlu][AEEA][AEEA][hArg]Q[hArg]P[hArg][Cha]SHKG[Oic][Nle]P[Phe(4-Cl)]-OH
SMILES: CCCCCCCCCCCCC(=O)N[C@@H](CCC(=O)NCCOCCOCC(=O)NCCOCCOCC(=O)N[C@@H](CCCCNC(=N)N)C(=O)N[C@@H](CCC(N)=O)C(=O)N[C@@H](CCCCNC(=N)N)C(=O)N1CCC[C@H]1C(=O)N[C@@H](CCCCNC(=N)N)C(=O)N[C@@H](CC1CCCCC1)C(=O)N[C@@H](CO)C(=O)N[C@@H](Cc1c[nH]cn1)C(=O)N[C@@H](CCCCN)C(=O)NCC(=O)N1[C@H](C(=O)N[C@@H](CCCC)C(=O)N2CCC[C@H]2C(=O)N[C@@H](Cc2ccc(Cl)cc2)C(=O)O)C[C@@H]2CCCC[C@@H]21)C(=O)O
B3: SEQ ID NO: 310 (peptide)
peptide: Tridecanoyl-[γGlu][AEEA][AEEA][hArg]Q[hArg]P[NMeR][Cha]SHKG[Oic][Nle]P[Phe(4-Cl)]-OH
SMILES: CCCCCCCCCCCCC(=O)N[C@@H](CCC(=O)NCCOCCOCC(=O)NCCOCCOCC(=O)N[C@@H](CCCCNC(=N)N)C(=O)N[C@@H](CCC(N)=O)C(=O)N[C@@H](CCCCNC(=N)N)C(=O)N1CCC[C@H]1C(=O)N(C)[C@@H](CCCNC(=N)N)C(=O)N[C@@H](CC1CCCCC1)C(=O)N[C@@H](CO)C(=O)N[C@@H](Cc1c[nH]cn1)C(=O)N[C@@H](CCCCN)C(=O)NCC(=O)N1[C@H](C(=O)N[C@@H](CCCC)C(=O)N2CCC[C@H]2C(=O)N[C@@H](Cc2ccc(Cl)cc2)C(=O)O)C[C@@H]2CCCC[C@@H]21)C(=O)O
B4: SEQ ID NO: 327 (peptide)
peptide: Tridecanoyl-[γGlu][AEEA][AEEA][hArg][Nle]Q[hArg]P[dR][NMeL]SAKG[Oic][Phe(4-I)]P[dBip]-OH
SMILES: CCCCCCCCCCCCC(=O)N[C@@H](CCC(=O)NCCOCCOCC(=O)NCCOCCOCC(=O)N[C@@H](CCCCNC(=N)N)C(=O)N[C@@H](CCCC)C(=O)N[C@@H](CCC(N)=O)C(=O)N[C@@H](CCCCNC(=N)N)C(=O)N1CCC[C@H]1C(=O)N[C@H](CCCNC(=N)N)C(=O)N(C)[C@@H](CC(C)C)C(=O)N[C@@H](CO)C(=O)N[C@@H](C)C(=O)N[C@@H](CCCCN)C(=O)NCC(=O)N1[C@H](C(=O)N[C@@H](Cc2ccc(I)cc2)C(=O)N2CCC[C@H]2C(=O)N[C@H](Cc2ccc(-c3ccccc3)cc2)C(=O)O)C[C@@H]2CCCC[C@@H]21)C(=O)O
B5: SEQ ID NO: 329 (peptide)
peptide: Tridecanoyl-[γGlu][AEEA][AEEA][hArg][dR]Q[hArg]P[Nle][NMeL]AAKG[Oic][Phe(4-I)]P[dBip]-OH
SMILES: CCCCCCCCCCCCC(=O)N[C@@H](CCC(=O)NCCOCCOCC(=O)NCCOCCOCC(=O)N[C@@H](CCCCNC(=N)N)C(=O)N[C@H](CCCNC(=N)N)C(=O)N[C@@H](CCC(N)=O)C(=O)N[C@@H](CCCCNC(=N)N)C(=O)N1CCC[C@H]1C(=O)N[C@@H](CCCC)C(=O)N(C)[C@@H](CC(C)C)C(=O)N[C@@H](C)C(=O)N[C@@H](C)C(=O)N[C@@H](CCCCN)C(=O)NCC(=O)N1[C@H](C(=O)N[C@@H](Cc2ccc(I)cc2)C(=O)N2CCC[C@H]2C(=O)N[C@H](Cc2ccc(-c3ccccc3)cc2)C(=O)O)C[C@@H]2CCCC[C@@H]21)C(=O)O
B6: SEQ ID NO: 315 (peptide)
peptide: Tridecanoyl-[γGlu][AEEA][AEEA][hArg][Nle]Q[hArg]P[dR][NMeL]SHKG[Oic][Phe(4-I)]P[dBip]-OH
SMILES: CCCCCCCCCCCCC(=O)N[C@@H](CCC(=O)NCCOCCOCC(=O)NCCOCCOCC(=O)N[C@@H](CCCCNC(=N)N)C(=O)N[C@@H](CCCC)C(=O)N[C@@H](CCC(N)=O)C(=O)N[C@@H](CCCCNC(=N)N)C(=O)N1CCC[C@H]1C(=O)N[C@H](CCCNC(=N)N)C(=O)N(C)[C@@H](CC(C)C)C(=O)N[C@@H](CO)C(=O)N[C@@H](Cc1c[nH]cn1)C(=O)N[C@@H](CCCCN)C(=O)NCC(=O)N1[C@H](C(=O)N[C@@H](Cc2ccc(I)cc2)C(=O)N2CCC[C@H]2C(=O)N[C@H](Cc2ccc(-c3ccccc3)cc2)C(=O)O)C[C@@H]2CCCC[C@@H]21)C(=O)O
B7: SEQ ID NO: 311 (peptide)
peptide: Tridecanoyl-[γGlu][AEEA][AEEA][hArg][dR]Q[hArg]P[Nle][NMeL]SHKG[Oic][Phe(4-I)]P[dBip]-OH
SMILES: CCCCCCCCCCCCC(=O)N[C@@H](CCC(=O)NCCOCCOCC(=O)NCCOCCOCC(=O)N[C@@H](CCCCNC(=N)N)C(=O)N[C@H](CCCNC(=N)N)C(=O)N[C@@H](CCC(N)=O)C(=O)N[C@@H](CCCCNC(=N)N)C(=O)N1CCC[C@H]1C(=O)N[C@@H](CCCC)C(=O)N(C)[C@@H](CC(C)C)C(=O)N[C@@H](CO)C(=O)N[C@@H](Cc1c[nH]cn1)C(=O)N[C@@H](CCCCN)C(=O)NCC(=O)N1[C@H](C(=O)N[C@@H](Cc2ccc(I)cc2)C(=O)N2CCC[C@H]2C(=O)N[C@H](Cc2ccc(-c3ccccc3)cc2)C(=O)O)C[C@@H]2CCCC[C@@H]21)C(=O)O
B8: SEQ ID NO: 317 (peptide)
peptide: Tridecanoyl-[γGlu][AEEA][AEEA][hArg][dR]Q[hArg]P[Nle][NMeL]AHKG[Oic][Phe(4-I)]P[dBip]-OH
SMILES: CCCCCCCCCCCCC(=O)N[C@@H](CCC(=O)NCCOCCOCC(=O)NCCOCCOCC(=O)N[C@@H](CCCCNC(=N)N)C(=O)N[C@H](CCCNC(=N)N)C(=O)N[C@@H](CCC(N)=O)C(=O)N[C@@H](CCCCNC(=N)N)C(=O)N1CCC[C@H]1C(=O)N[C@@H](CCCC)C(=O)N(C)[C@@H](CC(C)C)C(=O)N[C@@H](C)C(=O)N[C@@H](Cc1c[nH]cn1)C(=O)N[C@@H](CCCCN)C(=O)NCC(=O)N1[C@H](C(=O)N[C@@H](Cc2ccc(I)cc2)C(=O)N2CCC[C@H]2C(=O)N[C@H](Cc2ccc(-c3ccccc3)cc2)C(=O)O)C[C@@H]2CCCC[C@@H]21)C(=O)O

Starred links: 1 amine or outer side, 2 acyl side, 3 side chain; linkers in the order of their positions; H or OH if unused. Non-standard residues stand in square brackets, D forms with d. *: point of attachment. dBip = N[C@H](Cc1ccc(-c2ccccc2)cc1)C(=O)O; Oic = O=C(O)[C@@H]1C[C@@H]2CCCC[C@@H]2N1; Phe(4-Cl) = N[C@@H](Cc1ccc(Cl)cc1)C(=O)O; Phe(4-I) = N[C@@H](Cc1ccc(I)cc1)C(=O)O; γGlu = O=C(O)[C@H](CCC(=O)[*:2])N[*:1]; NMeR = CN[C@@H](CCCNC(=N)N)C(=O)O; Tridecanoyl = CCCCCCCCCCCCC(=O)*; hArg = N=C(N)NCCCC[C@H](N)C(=O)O; Cha = N[C@@H](CC1CCCCC1)C(=O)O; NMeL = CN[C@@H](CC(C)C)C(=O)O; Nle = CCCC[C@H](N)C(=O)O; AEEA = NCCOCCOCC(=O)O

The target of the first assay is T1, human APJ receptor. The experiment in a line: cell-based or functional assay.
Turning to B1, the “EC50 Human APJ Receptor” value was 36.1 nM.

For B2, the “EC50 Human APJ Receptor” value was found to be 0.0277 nM.

B3: the “EC50 Human APJ Receptor” value stood at 0.226 nM.

Turning to B4, the “EC50 Human APJ Receptor” value was found to be 14.4 nM.

In the case of B5, the “EC50 Human APJ Receptor” value worked out at 37.5 nM.

On to B6, for which the “EC50 Human APJ Receptor” value worked out at 3.04 nM.

Consider B7, for which the “EC50 Human APJ Receptor” value came out at 34.7 nM.

Turning to B8, the “EC50 Human APJ Receptor” value stood at 56.8 nM.

The next assay concerns the target T2, rat APJ receptor. As to the kind of experiment: cell-based or functional assay.
In the case of B1, the “EC50 Rat APJ Receptor” value turned out to be 46.6 nM.

As to B2, the “EC50 Rat APJ Receptor” value worked out at 0.102 nM.

For the molecule B3, the “EC50 Rat APJ Receptor” value came to 0.363 nM.

As to B4, the “EC50 Rat APJ Receptor” value was 14.8 nM.

On to B5, for which the “EC50 Rat APJ Receptor” value turned out to be 36.1 nM.

Regarding B6, the “EC50 Rat APJ Receptor” value is 4.9 nM.

In the case of B7, the “EC50 Rat APJ Receptor” value was found to be 37.4 nM.

For B8, the “EC50 Rat APJ Receptor” value is 63.9 nM.

Values taken from US10941182 (Amgen, dated 2021).
